From patent US5493008A, “Two non-contiguous regions contribute to nidogen binding to a single EGF-like motif of the laminin γ1 chain” (The University Of Virginia Patent Foundation, priority 1994, dated 1996)
Like-named read-outs stand apart in the source and are kept apart here. Each block holds one molecule with its values, some of them ahead of it. Where no end group is shown, it is not given here. The star is where a group is joined. Succinimide(1-Et,3-yl) = CCN1C(=O)CC(*)C1=O

How the values were obtained:
[1] = biological target: T1, recombinant nidogen (Mus musculus (Mouse)) (UniProt P10493); experiment: radioligand competition assay
T1 sequence: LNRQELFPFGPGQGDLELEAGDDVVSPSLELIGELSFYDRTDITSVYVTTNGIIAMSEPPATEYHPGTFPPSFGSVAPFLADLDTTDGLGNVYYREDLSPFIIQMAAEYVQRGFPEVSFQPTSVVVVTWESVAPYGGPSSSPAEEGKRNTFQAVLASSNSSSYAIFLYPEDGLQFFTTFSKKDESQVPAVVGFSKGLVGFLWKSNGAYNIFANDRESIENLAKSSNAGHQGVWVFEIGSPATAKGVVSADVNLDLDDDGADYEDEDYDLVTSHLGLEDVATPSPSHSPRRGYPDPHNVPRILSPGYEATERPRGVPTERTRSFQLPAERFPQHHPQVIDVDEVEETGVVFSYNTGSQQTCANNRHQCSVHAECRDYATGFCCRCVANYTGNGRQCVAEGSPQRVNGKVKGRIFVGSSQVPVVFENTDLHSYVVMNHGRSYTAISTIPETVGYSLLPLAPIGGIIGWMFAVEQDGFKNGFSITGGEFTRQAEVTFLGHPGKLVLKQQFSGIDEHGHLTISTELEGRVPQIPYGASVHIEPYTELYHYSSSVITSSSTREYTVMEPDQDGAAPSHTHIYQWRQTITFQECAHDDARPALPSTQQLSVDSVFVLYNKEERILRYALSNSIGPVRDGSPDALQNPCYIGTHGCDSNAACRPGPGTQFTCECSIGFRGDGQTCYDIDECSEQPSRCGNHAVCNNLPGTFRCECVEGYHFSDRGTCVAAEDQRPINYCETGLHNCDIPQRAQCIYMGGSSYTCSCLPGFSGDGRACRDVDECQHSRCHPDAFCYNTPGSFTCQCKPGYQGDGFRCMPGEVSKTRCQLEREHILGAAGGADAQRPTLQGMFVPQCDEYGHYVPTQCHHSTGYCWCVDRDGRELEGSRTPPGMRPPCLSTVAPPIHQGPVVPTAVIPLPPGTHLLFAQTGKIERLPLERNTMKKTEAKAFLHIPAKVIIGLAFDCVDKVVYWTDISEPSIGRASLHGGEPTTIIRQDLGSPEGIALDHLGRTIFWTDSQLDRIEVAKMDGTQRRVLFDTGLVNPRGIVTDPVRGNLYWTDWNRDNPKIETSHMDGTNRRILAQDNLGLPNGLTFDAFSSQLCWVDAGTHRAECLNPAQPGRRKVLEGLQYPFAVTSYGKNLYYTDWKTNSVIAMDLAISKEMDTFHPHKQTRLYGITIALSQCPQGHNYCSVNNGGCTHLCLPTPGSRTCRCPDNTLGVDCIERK

[2] = biological target: T1, recombinant nidogen (Mus musculus (Mouse)); experiment: radioligand competition assay: inhibitor varied, 0.2 nM recombinant nidogen, 125I-laminin fragment P1
[3] = biological target: T1, recombinant nidogen (Mus musculus (Mouse)); experiment: radioligand competition assay: non-labeled fragment P1 varied, 0.2 nM recombinant nidogen, 125I-laminin fragment P1
[4] = biological target: T1, recombinant nidogen (Mus musculus (Mouse)); experiment: radioligand competition assay, average of 14 separate assays: non-labeled fragment P1 varied, 0.2 nM recombinant nidogen, 125I-laminin fragment P1
[5] = biological target: T1, recombinant nidogen (Mus musculus (Mouse)); experiment: radioligand competition assay: non-labeled fragment P1 varied, 0.2 nM recombinant nidogen, 125I-laminin fragment P1; remark: listed apart in the source
nidogen = biological target: T2, nidogen (Mus musculus, UniProt P10493); conditions: Fox et al. 1991; read-out: κD of the high affinity binding site for nidogen; cited from earlier work
T2 sequence (P10493 29-1245): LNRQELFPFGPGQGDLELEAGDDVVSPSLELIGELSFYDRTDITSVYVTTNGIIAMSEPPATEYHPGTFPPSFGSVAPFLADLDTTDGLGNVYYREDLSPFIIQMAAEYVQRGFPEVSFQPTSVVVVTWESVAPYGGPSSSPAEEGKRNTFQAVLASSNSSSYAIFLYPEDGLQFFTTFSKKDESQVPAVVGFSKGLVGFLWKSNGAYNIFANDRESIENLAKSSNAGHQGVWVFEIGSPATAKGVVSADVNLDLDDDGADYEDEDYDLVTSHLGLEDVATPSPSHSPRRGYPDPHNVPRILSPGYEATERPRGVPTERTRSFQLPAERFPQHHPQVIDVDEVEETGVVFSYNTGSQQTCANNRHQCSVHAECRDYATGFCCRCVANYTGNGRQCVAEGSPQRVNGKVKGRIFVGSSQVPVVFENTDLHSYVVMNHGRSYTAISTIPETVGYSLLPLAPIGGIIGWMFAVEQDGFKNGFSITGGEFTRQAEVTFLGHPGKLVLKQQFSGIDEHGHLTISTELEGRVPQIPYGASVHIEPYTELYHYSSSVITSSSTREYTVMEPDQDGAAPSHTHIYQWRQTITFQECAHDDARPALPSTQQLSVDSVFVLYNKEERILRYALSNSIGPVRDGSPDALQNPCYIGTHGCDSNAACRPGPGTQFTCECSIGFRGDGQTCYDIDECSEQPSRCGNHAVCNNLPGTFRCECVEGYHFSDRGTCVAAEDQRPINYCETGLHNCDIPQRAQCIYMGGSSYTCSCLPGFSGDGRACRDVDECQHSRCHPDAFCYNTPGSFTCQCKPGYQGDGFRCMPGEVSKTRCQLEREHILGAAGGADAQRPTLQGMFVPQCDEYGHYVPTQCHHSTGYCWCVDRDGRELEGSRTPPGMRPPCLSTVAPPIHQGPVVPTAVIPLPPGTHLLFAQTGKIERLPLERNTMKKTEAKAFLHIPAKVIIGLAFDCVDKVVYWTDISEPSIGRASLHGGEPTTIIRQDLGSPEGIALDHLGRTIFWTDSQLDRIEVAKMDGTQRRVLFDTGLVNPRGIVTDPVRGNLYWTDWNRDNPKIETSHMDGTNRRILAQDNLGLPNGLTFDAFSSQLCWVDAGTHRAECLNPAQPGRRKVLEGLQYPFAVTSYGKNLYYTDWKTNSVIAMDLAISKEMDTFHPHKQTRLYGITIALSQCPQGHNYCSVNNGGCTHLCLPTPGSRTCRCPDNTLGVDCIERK

recombinant nidogen [6] = biological target: T3, recombinant nidogen (Mus musculus (Mouse), UniProt P10493); experiment: radioligand competition assay: inhibitor varied, 0.2 nM recombinant nidogen, 125I-laminin fragment P1
T3 sequence: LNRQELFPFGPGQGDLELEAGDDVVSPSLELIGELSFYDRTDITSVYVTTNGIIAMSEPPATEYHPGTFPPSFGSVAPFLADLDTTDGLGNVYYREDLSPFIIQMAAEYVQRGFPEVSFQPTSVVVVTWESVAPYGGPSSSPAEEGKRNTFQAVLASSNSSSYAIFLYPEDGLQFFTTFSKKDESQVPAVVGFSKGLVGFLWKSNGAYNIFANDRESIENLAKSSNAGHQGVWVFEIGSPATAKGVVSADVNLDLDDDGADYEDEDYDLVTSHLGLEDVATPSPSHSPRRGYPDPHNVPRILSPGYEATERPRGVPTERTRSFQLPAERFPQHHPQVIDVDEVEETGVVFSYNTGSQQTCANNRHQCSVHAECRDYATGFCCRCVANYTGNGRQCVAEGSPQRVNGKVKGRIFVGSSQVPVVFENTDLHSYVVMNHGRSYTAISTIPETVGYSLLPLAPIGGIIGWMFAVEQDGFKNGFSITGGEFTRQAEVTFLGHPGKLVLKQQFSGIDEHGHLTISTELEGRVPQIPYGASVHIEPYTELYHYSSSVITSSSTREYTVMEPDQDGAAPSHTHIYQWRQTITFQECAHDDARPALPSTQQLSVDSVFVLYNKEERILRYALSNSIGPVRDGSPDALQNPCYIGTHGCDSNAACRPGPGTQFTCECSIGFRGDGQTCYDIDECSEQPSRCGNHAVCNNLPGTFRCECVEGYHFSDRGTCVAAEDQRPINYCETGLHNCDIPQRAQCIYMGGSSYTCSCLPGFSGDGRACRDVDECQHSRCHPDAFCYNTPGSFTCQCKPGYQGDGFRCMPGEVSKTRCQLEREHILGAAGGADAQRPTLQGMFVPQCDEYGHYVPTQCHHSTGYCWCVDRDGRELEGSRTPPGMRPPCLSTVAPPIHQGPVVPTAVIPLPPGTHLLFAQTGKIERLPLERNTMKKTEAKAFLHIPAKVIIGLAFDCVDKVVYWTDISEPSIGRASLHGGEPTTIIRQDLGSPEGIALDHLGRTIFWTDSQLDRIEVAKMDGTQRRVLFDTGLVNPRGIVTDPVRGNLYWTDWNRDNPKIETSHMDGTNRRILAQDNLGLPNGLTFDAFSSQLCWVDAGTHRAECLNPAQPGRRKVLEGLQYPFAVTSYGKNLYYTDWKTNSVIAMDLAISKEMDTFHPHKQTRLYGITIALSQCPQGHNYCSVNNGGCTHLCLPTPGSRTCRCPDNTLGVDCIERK
Procedure: (§1) A radioligand competition assay was used for measurement of relative binding affinities (Mann K. et al. (1988), Eur. J. Biochem., 178, 71–80; Fox, J. W. et al. (1991), EMBO J., 10, 3137–3146). A fixed concentration of recombinant nidogen (0.2 nM) was incubated overnight at 4° C. with inhibitors at varying concentrations, followed by the addition of ^125I-labeled laminin fragment P1 (0.01 nM; 10,000–20,000 c.p.m.) for the same incubation period. Bound and non-bound fragment P1 was then separated by antibodies against nidogen.

recombinant nidogen [7] = biological target: T3, recombinant nidogen; experiment: radioligand competition assay, reduced and alkylated against the non-reduced mutant
Procedure: as §1

recombinant nidogen [8] = biological target: T3, recombinant nidogen; experiment: radioligand competition assay: inhibitor varied, 0.2 nM recombinant nidogen, 125I-laminin fragment P1; remark: listed apart in the source
Procedure: as §1

recombinant nidogen [9] = biological target: T3, recombinant nidogen; experiment: radioligand competition assay, synthetic heptapeptide variant
Procedure: as §1

fold loss in activity [1]: 2 fold
Molecule: IOPNAVGN (S, 799-806) (peptide)

fold higher IC50 than fragment P1 [1]: 5000 fold
IC50 [2]: 400 nM
Molecule: synthetic loop a,b, non-oxidized (792-815) (peptide)

IC50 [2]: 500 nM
Molecule: T1, 792-809 (peptide)

IC50 [3]: 0.05 nM
IC50 [4]: 0.05 nM
IC50 [5]: 0.08 nM
Molecule: laminin fragment P1

IC50 [2]: 1100 nM
Molecule: γ1III3ab4cd (from UniProt P02468)

Molecule: laminin 1: laminin of chain composition α1β1γ1
Kd (nidogen): 0.5 nM

fold higher activity than synthetic oxidized loop a,b [1]: 3 fold
further fold decrease in activity against modification of Tyr819 [1]: 30 fold
IC50 [2]: 80 nM
Molecule: γ1III4ab3cd (from UniProt P02468)

IC50 [2]: > 3200 nM
Molecule: γ1III3-5Δ4 (from UniProt P02468)

IC50 (recombinant nidogen [6]): 430 nM
fold decrease in activity on reduction and alkylation (recombinant nidogen [7]): ~300 fold
B1: γ1III4Y819/825-A, reduced (other)
chain: PC(Succinimide(1-Et,3-yl))QC(Succinimide(1-Et,3-yl))NDNIDPNAVGNC(Succinimide(1-Et,3-yl))NRLTGEC(Succinimide(1-Et,3-yl))LKC(Succinimide(1-Et,3-yl))IANTAGFAC(Succinimide(1-Et,3-yl))DRC(Succinimide(1-Et,3-yl))KEGFFGNPLAPNPADKC(Succinimide(1-Et,3-yl))K

IC50 (recombinant nidogen [6]): 520 nM
B2: γ1III4ab3cd, reduced (other)
chain: PC(Succinimide(1-Et,3-yl))QC(Succinimide(1-Et,3-yl))NDNIDPNAVGNC(Succinimide(1-Et,3-yl))NRLTGEC(Succinimide(1-Et,3-yl))LKC(Succinimide(1-Et,3-yl))PTGTAGKRC(Succinimide(1-Et,3-yl))ELC(Succinimide(1-Et,3-yl))DDGYFGDPLGSNGPVRLC(Succinimide(1-Et,3-yl))R

IC50 (recombinant nidogen [8]): 16000 nM
fold decrease in activity against the heptapeptide NIDPNAV (recombinant nidogen [9]): 16 fold
B3: NIDPNVV (peptide)
peptide: NIDPNVV

IC50 (recombinant nidogen [8]): 2400 nM
fold decrease in activity against the heptapeptide NIDPNAV (recombinant nidogen [9]): 3 fold
B4: NIDQNAV (peptide)
peptide: NIDQNAV
